Assay results reported in US5912120A, “Cloning, expression and diagnosis of human cytochrome P450 2C19: the principal determinant of s-mephenytoin metabolism” (The United States of America as represented by the …, priority 1994, dated 1999).

B1: 2C9-Ile^359 (65): recombinant human P450 2C9 allelic variant, clone 65, expressed in yeast (protein, UniProt P11712 1-490, looked up)
Cytochrome P450 2C9: MDSLVVLVLCLSCLLLLSLWRQSSGRGKLPPGPTPLPVIGNILQIGIKDISKSLTNLSKVYGPVFTLYFGLKPIVVLHGYEAVKEALIDLGEEFSGRGIFPLAERANRGFGIVFSNGKKWKEIRRFSLMTLRNFGMGKRSIEDRVQEEARCLVEELRKTKASPCDPTFILGCAPCNVICSIIFHKRFDYKDQQFLNLMEKLNENIKILSSPWIQICNNFSPIIDYFPGTHNKLLKNVAFMKSYILEKVKEHQESMDMNNPQDFIDCFLMKMEKEKHNQPSEFTIESLENTAVDLFGAGTETTSTTLRYALLLLLKHPEVTAKVQEEIERVIGRNRSPCMQDRSHMPYTDAVVHEVQRYIDLLPTSLPHAVTCDIKFRNYLIPKGTTILISLTSVLHDNKEFPNPEMFDPHHFLDEGGNFKKSKYFMPFSAGKRICVGEALAGMELFLFLTSILQNFNLKSLVDPKNLDTTPVVNGFASVPPFYQLCFIPV
B2: 2C8: recombinant human cytochrome P450 2C8 (clones 7b and 7c) expressed in yeast (protein)
chain: MEPFVVLVLCLSFMLLFSLWRQSCRRRKLPPGPTPLPIIGNMLQIDVKDICKSFTNFSKVYGPVFTVYFGMNPIVVFHGYEAVKEALIDNGEEFSGRGNSPISQRITKGLGIISSNGKRWKEIRRFSLTNLRNFGMGKRSIEDRVQEEAHCLVEELRKTKASPCDPTFILGCAPCNVICSVVFQKRFDYKDQNFLTLMKRFNENFRILNSPWIQVCNNFPLLIDCFPGTHNKVLKNVALTRSYIREKVKEHQASLDVNNPRDFMDCFLIKMEQEKDNQKSEFNIENLVGTVADLFVAGTETTSTTLRYGLLLLLKHPEVTAKVQEEIDHVIGRHRSPCMQDRSHMPYTDAVVHEIQRYSDLVPTGVPHAVTTDTKFRNYLIPKGTTIMALLTSVLHDDKEFPNPNIFDPGHFLDKNGNFKKSDYFMPFSAGKRICAGEGLARMELFLFLTTILQNFNLKSVDDLKNLNTTAVTKGIVSLPPSYQICFIPV
B3: 2C19 (11a): recombinant human cytochrome P450 2C19, clone 11a, amino acid sequence SEQ. ID. No. 1, expressed in yeast (protein)
chain: MDPFVVLVLCLSCLLLLSIWRQSSGRGKLPPGPTPLPVIGNILQIDIKDVSKSLTNLSKIYGPVFTLYFGLERMVVLHGYEVVKEALIDLGEEFSGRGHFPLAERANRGFGIVFSNGKRWKEIRRFSLMTLRNFGMGKRSIEDRVQEEARCLVEELRKTKASPCDPTFILGCAPCNVICSIIFQKRFDYKDQQFLNLMEKLNENIRIVSTPWIQICNNFPTIIDYFPGTHNKLLKNLAFMESDILEKVKEHQESMDINNPRDFIDCFLIKMEKEKQNQQSEFTIENLVITAADLLGAGTETTSTTLRYALLLLLKHPEVTAKVQEEIERVIGRNRSPCMQDRGHMPYTDAVVHEVQRYIDLIPTSLPHAVTCDVKFRNYLIPKGTTILTSLTSVLHDNKEFPNPEMFDPRHFLDEGGNFKKSNYFMPFSAGKRICVGEGLARMELFLFLTFILQNFNLKSLIDPKDLDTTPVVNGFASVPPFYQLCFIPV

Experiments:
[1] = molecular target: cytochrome P450 2C9, allelic variant clone 25 (Leu359) (human)
[2] = molecular target: cytochrome P450 2C9, allelic variant clone 65 (Ile359) (human)
[3] = Mephenytoin 4'-hydroxylase assay, recombinant human CYP2C yeast microsomes (Table III); type: biochemical; settings: for Mephenytoin 4'-Hydroxylase Activity S: recombinant yeast microsomes + P450 reductase, phospholipid, cytochrome b5 2:1, 0.4 mM substrate, HEPES pH 7.4, 37° C. 30 min, means ± SE; for R/S Ratio: with cytochrome b5
Procedure: (§1) Purified or recombinant yeast microsomes (10-50 pmol) were preincubated with dilauroylphosphatidylcholine (15 μg per 50 pmol P450), P450 reductase (500 U per 50 mol P450), and human cytochrome b5 (2:1 molar ratio when added). The reconstituted mixture was preincubated for 5 min at 37° C., and then placed on ice. A final concentration of 0.4 mM radiolabelled S- or R-mephenytoin (20.7 mCi/mM and 20.9 mCi/mMol) was added to 50 mM HEPES buffer (pH 7.4) containing 0.1 mM EDTA and 1.5 mM MgCl2 for recombinant 2C proteins. The mixture was then incubated at 37° with shaking for 3 min, and the reaction started with the addition of 2mM NADPH and terminated after 30 min with an equal volume of methanol. […] Reaction volumes were generally 0.25 ml except when the volume of recombinant purified cytochrome or yeast microsomes was greater than 50 μl. In these cases, the volume was increased to 0.5 ml to limit the volume of glycerol from the purified preparation to <4% of the final volume.

[4] = as above; type: biochemical; settings: recombinant yeast microsomes + P450 reductase, phospholipid, cytochrome b5 2:1; 0.4 mM substrate, HEPES pH 7.4, 37° C. 30 min; means ± SE
Procedure: as §1

[5] = Mephenytoin 4'-hydroxylase assay, purified recombinant P450 2C in reconstituted system (Table IV); type: biochemical; settings: for R/S Ratio / Mephenytoin 4'-Hydroxylase Activity S: purified P450, reconstituted system; for Mephenytoin 4'-Hydroxylase Activity S / Mephenytoin 4'-Hydroxylase Activity R: triplicate, means ± SE, blank not subtracted
Procedure: Recombinant yeast microsomes were prepared from a 10-12 l culture, and recombinant P450s were purified by aminooctylsepharose chromatography as described by Iwasaki et al., J. Biol. Chem. 226:3380-3382 (1991). The Emulgen was then removed from protein by adsorption of the protein to a 4 g hydroxylapatite column (Hypatite C, Clarkson Chemical Company, Williamsport, Pa.) equilibrated with 10 mM potassium phosphate buffer (pH 7.2), 20% glycerol, 0.1 mM EDTA, and 0.1 mM DTT and washing the column with the same buffer until the absorbance at 280 nm returned to zero. The P450 was then eluted with […], and dialyzed overnight against 100 mM potassium phosphate buffer (pH 7.4, 20% glycerol and 0.1 mM EDTA. Absolute and CO difference spectra of purified P450s were determined in the same buffer but containing 0.2% Emulgen and 0.5% cholate.
Mephenytoin 4'-hydroxylase activity was measured by a modification of the radiometric HPLC assay described by Shimada et al., J. Biol. Chem. 261:909-921 (1986), as described below. Purified or recombinant yeast microsomes (10-50 pmol) were preincubated with dilauroylphosphatidylcholine (15 μg per 50 pmol P450), P450 reductase (500 U per […] P450), and human cytochrome b5 (2:1 molar ratio when added). The reconstituted mixture was preincubated for 5 min at 37° C., and then placed on ice. A final concentration of 0.4 mM radiolabelled S- or R-mephenytoin (20.7 mCi/mM and 20.9 mCi/mMol) was added to 50 mM HEPES buffer (pH 7.4) containing 0.1 mM EDTA and 1.5 mM MgCl2 for recombinant 2C proteins. The mixture was then incubated at 37° with shaking for 3 min, and the reaction started with the addition of 2mM NADPH and terminated after 30 min with an equal volume of methanol. Cytochrome b5 was not included in all CYP2C18 reactions, since it had no effect or produced a slight inhibition on the activity of this CYP protein. Reaction volumes were generally 0.25 ml except when the volume of recombinant purified cytochrome or yeast microsomes was greater than 50 μl. In these cases, the volume was increased to 0.5 ml to limit the volume of glycerol from the purified preparation to <4% of the final volume.
At the end of the incubation period, the reactions were terminated with an equal volume of methanol. The incubation mixture was centrifuged at 10,000 g for 10 min and an aliquot assayed directly using HPLC without extraction. Samples with particularly low activity were concentrated by lyophilization and redissolved in a small volume of methanol:water (1:1) before assay. The HPLC system consisted of a reverse phase C18 (10 μm) Versapak, 300 mm×4.1 mm column (Altech Associates, Deerfield, Ill.) using an isocratic solvent consisting of methanol:water (45:55) with a flow rate was kept of 1 ml/min for 25 min. Detection of radioactive peaks was accomplished using an on-line Flow-One radiochemical detector (Radiomatic Instruments Co., Tampa, Fla. Detection of the unlabeled 4'-hydroxymephenytoin authentic standard was performed using an on-line multiwavelength UV detector at both 211 and 230 nm.
Recombinant P450s were purified from yeast microsomes and assays performe

[6] = Tolbutamide hydroxylase assay, purified recombinant P450 2C (Table IV); type: biochemical; settings: purified P450, reconstituted; blank (22 ± 5) subtracted; means ± SE
Procedure: Tolbutamide hydroxylase activity was measured according to Knodell et al., J. Pharmacol. Exper. Ther. 241:1112-1119 (1987), with several modifications. Yeast microsomes (1 mg protein) were preincubated with 300 pmol hamster P450 reductase in 0.2 ml of the incubation buffer (below) for 3 min at 37° C. The reaction was then placed on ice and incubated in 0.2 ml of 50 mM HEPES buffer (pH 7.4) containing 1.5 mM MgCl2, 0.1 mM EDTA in a final volume of 1 ml and 1 mM sodium tolbutamide. The reaction was initiated with 0.5 mM NADPH. Human liver microsomes (0.22 mg protein) were incubated without reductase. Incubations with reconstituted recombinant P450s contained 50 pmol purified P450 enzyme, 150 pmol P450 reductase, and 15 μg dilauroylphosphatidyl-choline, and were performed in 100 mM potassium phosphate buffer (pH 7.4). Reactions were terminated after 60 min at 37° C. by the addition of 50 μl of 4N HCl, followed by extraction with 3 ml of water-saturated ethyl acetate. […] The column eluate was monitored at 230 nm and rates of product formation were determined from standard curves prepared by adding varying amounts of 4-hydroxytolbutamide to incubations conducted without NADPH. […] Samples were analyzed in triplicate.

[7] = Tolbutamide hydroxylase assay, recombinant human CYP2C yeast microsomes (Table V); type: biochemical; settings: for Tolbutamide Hydroxylase Activity (nmol/min/nmol P450) / Tolbutamide Hydroxylase Activity (nmol/min/mg protein): 1 mg yeast microsomal protein + purified P450 reductase (1,000 units); for Tolbutamide Hydroxylase Activity (nmol/min/mg protein): means ±SE
Procedure: Tolbutamide hydroxylase activity was measured according to Knodell et al., J. Pharmacol. Exper. […] Yeast microsomes (1 mg protein) were preincubated with 300 pmol hamster P450 reductase in 0.2 ml of the incubation buffer (below) for 3 min at 37° C. The reaction was then placed on ice and incubated in 0.2 ml of 50 mM HEPES buffer (pH 7.4) containing 1.5 mM MgCl2, 0.1 mM EDTA in a final volume of 1 ml and 1 mM sodium tolbutamide. The reaction was initiated with 0.5 mM NADPH. Human liver microsomes (0.22 mg protein) were incubated without reductase. Incubations with reconstituted recombinant P450s contained 50 pmol purified P450 enzyme, 150 pmol P450 reductase, and 15 μg dilauroylphosphatidyl-choline, and were performed in 100 mM potassium phosphate buffer (pH 7.4). Reactions were terminated after 60 min at 37° C. by the addition of 50 μl of 4N HCl, followed by extraction with 3 ml of water-saturated ethyl acetate. The ethyl acetate extracts were dried under nitrogen at 40° C., the residue resolubilized in 200 μl methanol, and 4-hydroxytolbutamide then assayed using HPLC by injecting 50 μl of the solubilized extract onto a μBONDAPAK C18 column (4.6×300 mm) using 0.05% phosphoric acid, pH 2.6: acetonitrile (6:4, v/v) as the mobile phase with a flow rate of 1 ml/min. The column eluate was monitored at 230 nm and rates of product formation were determined from standard curves prepared by adding varying amounts of 4-hydroxytolbutamide to incubations conducted without NADPH. […] Samples were analyzed in triplicate.

metabolism of tolbutamide [1] [fold] | metabolism of tolbutamide [2] [fold] | Molecule | Mephenytoin 4'-Hydroxylase Activity S [3] [nmol/min/nmol P450] | R/S Ratio ([3]; recombinant yeast microsomes) | Mephenytoin 4'-Hydroxylase Activity R [4] [nmol/min/nmol P450] | R/S Ratio [5] | Mephenytoin 4'-Hydroxylase Activity S [5] [nmol/min/nmol P450] | Mephenytoin 4'-Hydroxylase Activity R [5] [nmol/min/nmol P450] | Tolbutamide Hydroxylase Activity [6] | Tolbutamide Hydroxylase Activity (nmol/min/nmol P450) ([7]; adjusted for P450 content) | turnover number for tolbutamide higher than the Leu^359 allele ([7]; recombinant microsomes, adjusted for P450 content) [fold] | Tolbutamide Hydroxylase Activity (nmol/min/mg protein) [7] [nmol/min/mg protein] | rate of S-hydroxylation higher than that of R-hydroxylation ([3]; recombinant yeast microsomes) | stereospecificity of 4'-hydroxylation of mephenytoin ([3]; recombinant yeast microsomes (Table III)) | Mephenytoin 4'-Hydroxylase Activity S ([3]; listed as 2C19) | S-mephenytoin 4'-hydroxylation turnover number higher than that of recombinant 2C9, 2C18 or 2C8 ([5]; purified, reconstituted system) | stereospecificity of 4'-hydroxylation of mephenytoin ([5]; purified, reconstituted system (Table IV)) | S-mephenytoin 4'-hydroxylase turnover number higher than reported for P450MP purified from human liver ([5]; versus Srivastava et al. (1991)) | S-mephenytoin 4'-hydroxylation turnover number higher than that of human liver microsomes ([5]; versus human liver microsomes) | tolbutamide hydroxylase activity compared with 2C9 ([7]; recombinant yeast microsomes, in words)
> 10 | > 10 | exogenous P450 reductase (enzyme) | – | – | – | – | – | – | – | – | – | – | – | – | – | – | – | – | – | –
– | – | B1 | 0.043 ± 0.000 | 0.9 | 0.041 ± 0.005 | 0.77 | 0.081 ± 0.006 | 0.063 ± 0.003 | 122 + 29 pmol/min/nmol P450 | 3.4 ± 0.15 | 3 | – | – | – | – | – | – | – | – | –
– | – | B2 | 0.037 ± 0.001 | 0.4 | 0.016 ± 0.001 | 0.4 | 0.057 ± 0.009 | 0.023 ± 0.004 | 12 ± 4 pmol/min/nmol P450 | 0.11 ± 0.003 | – | 8.5 ± 0.2 | – | – | – | – | – | – | – | –
– | – | B3 | 4.6 ± 0.3 | 0.03 | 0.014 ± 0.02 | 0.03 | 6.17 ± 0.24 | 0.19 ± 0.04 | – | – | – | 18.4 ± 2.4 | at least 30 fold | stereospecific | ~ 5 nmol/min/nmol P450 | 50-100 times | stereospecific for the S-enantiomer | ~ 30 times | at least 10 times | comparable to that of 2C9
